The values below come from paper PMC5007037.

The target of this test is FcαRI (CD89) (human (endogenous in primary monocytes)) (UniProt P24071).
Chain of UniProt P24071 (P24071 22-287): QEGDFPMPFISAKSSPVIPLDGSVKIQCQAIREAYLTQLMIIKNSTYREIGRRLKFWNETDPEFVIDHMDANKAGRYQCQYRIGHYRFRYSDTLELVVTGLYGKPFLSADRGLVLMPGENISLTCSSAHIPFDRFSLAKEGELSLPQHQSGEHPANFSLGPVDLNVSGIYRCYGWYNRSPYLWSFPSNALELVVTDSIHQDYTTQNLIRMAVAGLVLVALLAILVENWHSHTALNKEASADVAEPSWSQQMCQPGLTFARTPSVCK

CH31 dIgA2 (antibody): the percent blocking of IgA-mediated phagocytosis of 0.2 μm ConSgp140-conjugated beads by primary monocytes pre-incubated with 5 μg/ml anti-human CD89 mAb (MIP8a) was 91.5%; the percent blocking of IgA-mediated phagocytosis of ConSgp140CFI-conjugated 1 μm beads by primary monocytes pre-incubated with anti-human CD89 mAb (MIP8a) at 1, 5 and 25 μg/ml (70%, 74%, 78%) was found to be 78%.
